# Laboratory results: patent US20250388669A1 (published 2025)
# T1: B7H3 (human, UniProt Q5ZPR3 29-466, limits assumed)
# T1 construct: Tumor associated antigen; also called huB7H3
# T1 sequence (looked up): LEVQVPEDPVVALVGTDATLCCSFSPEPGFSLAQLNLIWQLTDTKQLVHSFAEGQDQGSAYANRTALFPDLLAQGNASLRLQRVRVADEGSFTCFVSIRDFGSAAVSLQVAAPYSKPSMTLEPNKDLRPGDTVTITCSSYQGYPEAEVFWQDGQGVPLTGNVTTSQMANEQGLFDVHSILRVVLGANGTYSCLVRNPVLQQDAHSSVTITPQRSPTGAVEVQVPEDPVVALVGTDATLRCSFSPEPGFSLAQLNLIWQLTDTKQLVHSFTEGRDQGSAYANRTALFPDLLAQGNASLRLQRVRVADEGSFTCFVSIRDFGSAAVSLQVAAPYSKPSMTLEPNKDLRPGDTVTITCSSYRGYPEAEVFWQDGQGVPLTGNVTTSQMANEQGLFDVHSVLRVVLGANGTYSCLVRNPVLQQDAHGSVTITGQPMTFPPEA
# Assays:
# CD137 [1] = target: T2, CD137 (human, UniProt Q07011 24-186); assay: CD137 binding by FCM or ELISA
# T2 construct: Reporter assays used GS-H2-huCD137 cells expressing human CD137; also called 4-1BB/CD137; huCD137
# B7H3 = target: T1, B7H3; assay: FCM or ELISA
# CD137 [2] = target: T3, CD137 (human, UniProt Q07011 24-186); assay: CD137 binding, FCM or ELISA
# T3 construct: In the reporter assay it is whole, on GS-H2-huCD137 cells; also called 4-1BB; huCD137
# CD3 = CD3 (human); assay: CD3 binding, as described in Example 2 (ELISA or FCM)
# CD3 (human), sequence (chain, as listed by the source): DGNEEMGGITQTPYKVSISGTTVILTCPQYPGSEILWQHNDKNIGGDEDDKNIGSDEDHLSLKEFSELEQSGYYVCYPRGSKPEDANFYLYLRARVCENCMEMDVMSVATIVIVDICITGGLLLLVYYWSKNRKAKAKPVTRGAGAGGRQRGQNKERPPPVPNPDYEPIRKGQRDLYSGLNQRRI
Binder,binding result (CD137 [1]),binding result (B7H3),binding result (CD137 [2]),EC50 (CD3)
"Ly2122 (bispecific antibody, human IgG1, kappa, B7H3/CD137: two B7H3 Fabs, terminal CD137 Fv) chain 1: QVQLVQSGAEVKKPGASVKVSCKASGYTFTSYVMHWVRQKPGQGLEWIGYINPYNEGTESTDKFKGRATMTSDKSTSTVYMELSSLRSEDTAVYYCASIYYGYEGTYFGVWGQGTLVTVSSASTKGPSVFPLAPSSKSTSGGTAALGCLVKDYFPEPVTVSWNSGALTSGVHTFPAVLQSSGLYSLSSVVTVPSSSLGTQTYICNVNHKPSNTKVDKKVEPKSCDKTHTCPPCPAPEAAGPSVFLFPPKPKDTLMISRTPEVTCVVVDVSHEDPEVKFNWYVDGVEVHNAKTKPREEQYNSTYRVVSVLTVLHQDWLNGKEYKCKVSNKALPAPIEKTISKAKGQPREPQVYTLPPSREEMTKNQVSLWCLVKGFYPSDIAVEWESNGQPENNYKTTPPVLDSDGSFFLYSKLTVDKSRWQQGNVFSCSVMHEALHNHYTQKSLSLSPGGGGGSGGGGSGGGGSGGGGSQVQLVQSGAEVKKPGASVKVSCKASGYTFAGFEMHWVRQAPGQGLEWMGAIDPKTGGTDYNQKFKDRVTMTRDTSISTAYMELSRLRSDDTAVYYCARDLGYFDVWGQGTLVTVSS chain 2: QVQLVQSGAEVKKPGASVKVSCKASGYTFTSYVMHWVRQKPGQGLEWIGYINPYNEGTESTDKFKGRATMTSDKSTSTVYMELSSLRSEDTAVYYCASIYYGYEGTYFGVWGQGTLVTVSSASTKGPSVFPLAPSSKSTSGGTAALGCLVKDYFPEPVTVSWNSGALTSGVHTFPAVLQSSGLYSLSSVVTVPSSSLGTQTYICNVNHKPSNTKVDKKVEPKSCDKTHTCPPCPAPEAAGPSVFLFPPKPKDTLMISRTPEVTCVVVDVSHEDPEVKFNWYVDGVEVHNAKTKPREEQYNSTYRVVSVLTVLHQDWLNGKEYKCKVSNKALPAPIEKTISKAKGQPREPQVYTLPPSREEMTKNQVSLSCAVKGFYPSDIAVEWESNGQPENNYKTTPPVLDSDGSFFLVSKLTVDKSRWQQGNVFSCSVMHEALHNRFTQKSLSLSPGGGGGSGGGGSGGGGSGGGGSDIQMTQSPSSLSASVGDRVTITCRASQDIRSNLNWYQQKPGGAVKLLIYYTSRLHSGVPSRFSGSGSGTDYTLTISSLQPEDFATYFCQQSEKLPRTFGGGTKVEIR light: EIVLTQSPATLSLSPGERATLSCRASSSVSYMHWYQQKPGQAPRPWIYATSNLASGIPARFSGSRSGTDYTLTISSLEPEDFAVYYCQQWSSNTLTFGGGTKVEIKRTVAAPSVFIFPPSDEQLKSGTASVVCLLNNFYPREAKVQWKVDNALQSGNSQESVTEQDSKDSTYSLSSTLTLSKADYEKHKVYACEVTHQGLSSPVTKSFNRGEC",binds,binds,–,–
"Ly2326 (bispecific antibody, human IgG1, kappa, CD19 Fabs, terminal CD137 Fv) chain 1: QVQLQQSGAELVRPGSSVKISCKASGYAFSSYWMNWVKQRPGQGLEWIGQIWPGDGDTNYNGKFKGKATLTADESSSTAYMQLSSLASEDSAVYFCARRETTTVGRYYYAMDYWGQGTTVTVSSASTKGPSVFPLAPSSKSTSGGTAALGCLVKDYFPEPVTVSWNSGALTSGVHTFPAVLQSSGLYSLSSVVTVPSSSLGTQTYICNVNHKPSNTKVDKKVEPKSCDKTHTCPPCPAPEAAGPSVFLFPPKPKDTLMISRTPEVTCVVVDVSHEDPEVKFNWYVDGVEVHNAKTKPREEQYNSTYRVVSVLTVLHQDWLNGKEYKCKVSNKALPAPIEKTISKAKGQPREPQVYTLPPSREEMTKNQVSLWCLVKGFYPSDIAVEWESNGQPENNYKTTPPVLDSDGSFFLYSKLTVDKSRWQQGNVFSCSVMHEALHNHYTQKSLSLSPGGGGGSGGGGSGGGGSGGGGSQVQLVQSGAEVKKPGASVKVSCKASGYTFAGFEMHWVRQAPGQGLEWMGAIDPKTGGTDYNQKFKDRVTMTRDTSISTAYMELSRLRSDDTAVYYCARDLGYFDVWGQGTLVTVSS chain 2: QVQLQQSGAELVRPGSSVKISCKASGYAFSSYWMNWVKQRPGQGLEWIGQIWPGDGDTNYNGKFKGKATLTADESSSTAYMQLSSLASEDSAVYFCARRETTTVGRYYYAMDYWGQGTTVTVSSASTKGPSVFPLAPSSKSTSGGTAALGCLVKDYFPEPVTVSWNSGALTSGVHTFPAVLQSSGLYSLSSVVTVPSSSLGTQTYICNVNHKPSNTKVDKKVEPKSCDKTHTCPPCPAPEAAGPSVFLFPPKPKDTLMISRTPEVTCVVVDVSHEDPEVKFNWYVDGVEVHNAKTKPREEQYNSTYRVVSVLTVLHQDWLNGKEYKCKVSNKALPAPIEKTISKAKGQPREPQVYTLPPSREEMTKNQVSLSCAVKGFYPSDIAVEWESNGQPENNYKTTPPVLDSDGSFFLVSKLTVDKSRWQQGNVFSCSVMHEALHNRFTQKSLSLSPGGGGGSGGGGSGGGGSGGGGSDIQMTQSPSSLSASVGDRVTITCRASQDIRSNLNWYQQKPGGAVKLLIYYTSRLHSGVPSRFSGSGSGTDYTLTISSLQPEDFATYFCQQSEKLPRTFGGGTKVEIR light: not shown",–,–,binds,–
"Ly1966 (other, Tri-specific antibody: CD19 Fabs, central CD3 Fv, terminal CD137 Fv) chain 1: QVQLQQSGAELVRPGSSVKISCKASGYAFSSYWMNWVKQRPGQGLEWIGQIWPGDGDTNYNGKFKGKATLTADESSSTAYMQLSSLASEDSAVYFCARRETTTVGRYYYAMDYWGQGTTVTVSSASTKGPSVFPLAPSSKSTSGGTAALGCLVKDYFPEPVTVSWNSGALTSGVHTFPAVLQSSGLYSLSSVVTVPSSSLGTQTYICNVNHKPSNTKVDKKVEPKSCGGGGSGGGGSGGGGSGGGGSEVQLVESGGGLVQPGGSLRLSCAASGFTFSTYAMNWVRQAPGKGLEWVGRIRSKYNNYATYYADSVKGRFTISRDDSKNSLYLQMNSLKTEDTAVYYCVRHGNFGNSYVSWFAYWGQGTLVTVSSGGGGSDKTHTCPPCPAPEAAGPSVFLFPPKPKDTLMISRTPEVTCVVVDVSHEDPEVKFNWYVDGVEVHNAKTKPREEQYNSTYRVVSVLTVLHQDWLNGKEYKCKVSNKALPAPIEKTISKAKGQPREPQVYTLPPSREEMTKNQVSLWCLVKGFYPSDIAVEWESNGQPENNYKTTPPVLDSDGSFFLYSKLTVDKSRWQQGNVFSCSVMHEALHNHYTQKSLSLSPGGGGGSGGGGSGGGGSGGGGSQVQLVQSGAEVKKPGASVKVSCKASGYTFAGFEMHWVRQAPGQGLEWMGAIDPKTGGTDYNQKFKDRVTMTRDTSISTAYMELSRLRSDDTAVYYCARDLGYFDVWGQGTLVTVSS chain 2: QVQLQQSGAELVRPGSSVKISCKASGYAFSSYWMNWVKQRPGQGLEWIGQIWPGDGDTNYNGKFKGKATLTADESSSTAYMQLSSLASEDSAVYFCARRETTTVGRYYYAMDYWGQGTTVTVSSASTKGPSVFPLAPSSKSTSGGTAALGCLVKDYFPEPVTVSWNSGALTSGVHTFPAVLQSSGLYSLSSVVTVPSSSLGTQTYICNVNHKPSNTKVDKKVEPKSCGGGGSGGGGSGGGGSGGGGSQAVVTQEPSLTVSPGGTVTLTCRSSTGAVTTSNYANWVQQKPGQAPRGLIGGTNKRAPWTPARFSGSLLGGKAALTITGAQAEDEADYYCALWYSNLWVFGGGTKLTVLGGGGSDKTHTCPPCPAPEAAGPSVFLFPPKPKDTLMISRTPEVTCVVVDVSHEDPEVKFNWYVDGVEVHNAKTKPREEQYNSTYRVVSVLTVLHQDWLNGKEYKCKVSNKALPAPIEKTISKAKGQPREPQVYTLPPSREEMTKNQVSLSCAVKGFYPSDIAVEWESNGQPENNYKTTPPVLDSDGSFFLVSKLTVDKSRWQQGNVFSCSVMHEALHNRFTQKSLSLSPGGGGGSGGGGSGGGGSGGGGSDIQMTQSPSSLSASVGDRVTITCRASQDIRSNLNWYQQKPGGAVKLLIYYTSRLHSGVPSRFSGSGSGTDYTLTISSLQPEDFATYFCQQSEKLPRTFGGGTKVEIR light: not shown",–,–,binds,0.348 µg/mL
